Data from article PMC8825798 (Communications Biology, 2022).
Where “and” joins values, the source holds several entries; their conditions need not be identical. Identical values can stand only once.

Columns and labels:
Assay in all cases: BLI
Conditions in all cases: both partners purified
[1] = biological target: T1, spike hepta-peptide Thr1273 → Ala (1267Gly-Val-Lys-Leu-His-Tyr-Ala1273) (SARS-CoV-2, Thr^1273 → Ala (stands in the printed letters))
T1 peptide: GVKLHYA

[2] = biological target: T2, spike hepta-peptide Thr1273 → Gln (SARS-CoV-2, Gln^1273 (stands in the printed letters))
T2 peptide: GVKLHYQ

[3] = biological target: T3, spike hepta-peptide Thr1273 → Val (SARS-CoV-2, Thr^1273 → Val (stands in the printed letters))
T3 peptide: GVKLHYV

[4] = biological target: T4, spike hepta-peptide Thr1273 → Glu (SARS-CoV-2, Thr^1273 → Glu (stands in the printed letters))
T4 peptide: GVKLHYE

[5] = biological target: T5, spike hepta-peptide Tyr1272 → Ala (1267Gly-Val-Lys-Leu-His-Ala-Thr1273) (SARS-CoV-2, Tyr^1272 → Ala (stands in the printed letters))
T5 peptide: GVKLHAT

[6] = biological target: T6, spike hepta-peptide Thr1273 → Arg (SARS-CoV-2, Arg^1273 (stands in the printed letters))
T6 peptide: GVKLHYR

B1: αCOPI-WD40 domain (residues 1-327) from Schizosaccharomyces pombe (domain or fragment)
chain: MEMLTKFESRSSRAKGVAFHPTQPWILTSLHNGRIQLWDYRMGTLLDRFDGHDGPVRGIAFHPTQPLFVSGGDDYKVNVWNYKSRKLLFSLCGHMDYVRVCTFHHEYPWILSCSDDQTIRIWNWQSRNCIAILTGHSHYVMCAAFHPSEDLIVSASLDQTVRVWDISGLRMKNAAPVSMSKEDQKAQAHNSKSNDKKGSTDAIVKFVLEGHDRGVNWCAFHPTLPLILSAGDDRLVKLWRMTASKAWEVDTCRGHFNNVSCCLFHPHQELILSASEDKTIRVWDLNRRTAVQTFRRDNDRFWFITVHPKLNLFAAAHDSGVMVFKLE
Kd [1]: 1130 nM and 1140 nM
koff [1]: 0.076 s⁻¹
kon [1]: 66700 M⁻¹ s⁻¹
Kd [2]: 780 nM and 1150 nM
koff [2]: 0.066 s⁻¹
kon [2]: 60000 M⁻¹ s⁻¹
Kd [3]: 3200 nM and 2060 nM
koff [3]: 0.212 s⁻¹
kon [3]: 103000 M⁻¹ s⁻¹
Kd [4]: 310 nM and 380 nM
koff [4]: 0.024 s⁻¹
kon [4]: 59000 M⁻¹ s⁻¹
Kd [5]: 3770 nM and 2320 nM
koff [5]: 0.28 s⁻¹
kon [5]: 121000 M⁻¹ s⁻¹
Kd [6]: 1730 nM and 1290 nM
koff [6]: 0.177 s⁻¹
kon [6]: 57600 M⁻¹ s⁻¹
